Measurements reported in patent US20250339531A1, “DUX4 POLYPEPTIDES AND NUCLEIC ACIDS FOR TREATING INFLAMMATORY AND AUTOIMMUNE CONDITIONS” (Fred Hutchinson Cancer Center, priority 2021, published 2025).

B1: Q3SY84 (protein, UniProt Q3SY84 1-523, looked up)
chain: MSRQFTCKSGAAAKGGFSGCSAVLSGGSSSSFRAGSKGLSGGFGSRSLYSLGGVRSLNVASGSGKSGGYGFGRGRASGFAGSMFGSVALGPVCPTVCPPGGIHQVTVNESLLAPLNVELDPEIQKVRAQEREQIKALNNKFASFIDKVRFLEQQNQVLETKWELLQQLDLNNCKNNLEPILEGYISNLRKQLETLSGDRVRLDSELRNVRDVVEDYKKRYEEEINKRTAAENEFVLLKKDVDAAYANKVELQAKVESMDQEIKFFRCLFEAEITQIQSHISDMSVILSMDNNRNLDLDSIIDEVRTQYEEIALKSKAEAEALYQTKFQELQLAAGRHGDDLKNTKNEISELTRLIQRIRSEIENVKKQASNLETAIADAEQRGDNALKDARAKLDELEGALHQAKEELARMLREYQELMSLKLALDMEIATYRKLLESEECRMSGEFPSPVSISIISSTSGGSVYGFRPSMVSGGYVANSSNCISGVCSVRGGEGRSRGSANDYKDTLGKGSSLSAPSKKTSR
modifications: full-length
B2: Q9P2E9 (protein, UniProt Q9P2E9 1-1410, looked up)
chain: MDIYDTQTLGVVVFGGFMVVSAIGIFLVSTFSMKETSYEEALANQRKEMAKTHHQKVEKKKKEKTVEKKGKTKKKEEKPNGKIPDHDPAPNVTVLLREPVRAPAVAVAPTPVQPPIIVAPVATVPAMPQEKLASSPKDKKKKEKKVAKVEPAVSSVVNSIQVLTSKAAILETAPKEVPMVVVPPVGAKGNTPATGTTQGKKAEGTQNQSKKAEGAPNQGRKAEGTPNQGKKTEGTPNQGKKAEGTPNQGKKAEGTPNQGKKAEGAQNQGKKVDTTPNQGKKVEGAPTQGRKAEGAQNQAKKVEGAQNQGKKAEGAQNQGKKGEGAQNQGKKAEGAQNQGKKAEGAQNQGKKAEGAQNQGKKAEGAQNQGKKAEGAQNQGKKAEGAQNQGKKVEGAQNQGKKAEGAQNQGKKAEGAQNQGKKAEGAQNQGKKAEGAQNQGKKAEGAQNQGKKAEGAQNQGKKAEGAQNQGKKVEGAQNQGKKAEGAQNQGKKAEGAQNQGKKAEGAQNQGQKGEGAQNQGKKTEGAQGKKAERSPNQGKKGEGAPIQGKKADSVANQGTKVEGITNQGKKAEGSPSEGKKAEGSPNQGKKADAAANQGKKTESASVQGRNTDVAQSPEAPKQEAPAKKKSGSKKKGEPGPPDADGPLYLPYKTLVSTVGSMVFNEGEAQRLIEILSEKAGIIQDTWHKATQKGDPVAILKRQLEEKEKLLATEQEDAAVAKSKLRELNKEMAAEKAKAAAGEAKVKKQLVAREQEITAVQARMQASYREHVKEVQQLQGKIRTLQEQLENGPNTQLARLQQENSILRDALNQATSQVESKQNAELAKLRQELSKVSKELVEKSEAVRQDEQQRKALEAKAAAFEKQVLQLQASHRESEEALQKRLDEVSRELCHTQSSHASLRADAEKAQEQQQQMAELHSKLQSSEAEVRSKCEELSGLHGQLQEARAENSQLTERIRSIEALLEAGQARDAQDVQASQAEADQQQTRLKELESQVSGLEKEAIELREAVEQQKVKNNDLREKNWKAMEALATAEQACKEKLLSLTQAKEESEKQLCLIEAQTMEALLALLPELSVLAQQNYTEWLQDLKEKGPTLLKHPPAPAEPSSDLASKLREAEETQSTLQAECDQYRSILAETEGMLRDLQKSVEEEEQVWRAKVGAAEEELQKSRVTVKHLEEIVEKLKGELESSDQVREHTSHLEAELEKHMAAASAECQNYAKEVAGLRQLLLESQSQLDAAKSEAQKQSDELALVRQQLSEMKSHVEDGDIAGAPASSPEAPPAEQDPVQLKTQLEWTEAILEDEQTQRQKLTAEFEEAQTSACRLQEELEKLRTAGPLESSETEEASQLKERLEKEKKLTSDLGRAATRLQELLKTTQEQLAREKDTVKKLQEQLEKAEDGSSSKEGTSV
modifications: full-length
B3: P68104 (protein, UniProt P68104 1-462, looked up)
chain: MGKEKTHINIVVIGHVDSGKSTTTGHLIYKCGGIDKRTIEKFEKEAAEMGKGSFKYAWVLDKLKAERERGITIDISLWKFETSKYYVTIIDAPGHRDFIKNMITGTSQADCAVLIVAAGVGEFEAGISKNGQTREHALLAYTLGVKQLIVGVNKMDSTEPPYSQKRYEEIVKEVSTYIKKIGYNPDTVAFVPISGWNGDNMLEPSANMPWFKGWKVTRKDGNASGTTLLEALDCILPPTRPTDKPLRLPLQDVYKIGGIGTVPVGRVETGVLKPGMVVTFAPVNVTTEVKSVEMHHEALSEALPGDNVGFNVKNVSVKDVRRGNVAGDSKNDPPMEAAGFTAQVIILNHPGQISAGYAPVLDCHTAHIACKFAELKEKIDRRSGKKLEDGPKFLKSGDAAIVDMVPGKPMCVESFSDYPPLGRFAVRDMRQTVAVGVIKAVDKKAAGAGKVTKSAQKAQKAK
modifications: full-length
B4: Q14240 (protein, UniProt Q14240 1-407, looked up)
chain: MSGGSADYNREHGGPEGMDPDGVIESNWNEIVDNFDDMNLKESLLRGIYAYGFEKPSAIQQRAIIPCIKGYDVIAQAQSGTGKTATFAISILQQLEIEFKETQALVLAPTRELAQQIQKVILALGDYMGATCHACIGGTNVRNEMQKLQAEAPHIVVGTPGRVFDMLNRRYLSPKWIKMFVLDEADEMLSRGFKDQIYEIFQKLNTSIQVVLLSATMPTDVLEVTKKFMRDPIRILVKKEELTLEGIKQFYINVEREEWKLDTLCDLYETLTITQAVIFLNTRRKVDWLTEKMHARDFTVSALHGDMDQKERDVIMREFRSGSSRVLITTDLLARGIDVQQVSLVINYDLPTNRENYIHRIGRGGRFGRKGVAINFVTEEDKRILRDIETFYNTTVEEMPMNVADLI
modifications: full-length
B5: P20020 (protein, UniProt P20020 1-1220, looked up)
chain: MGDMANNSVAYSGVKNSLKEANHDGDFGITLAELRALMELRSTDALRKIQESYGDVYGICTKLKTSPNEGLSGNPADLERREAVFGKNFIPPKKPKTFLQLVWEALQDVTLIILEIAAIVSLGLSFYQPPEGDNALCGEVSVGEEEGEGETGWIEGAAILLSVVCVVLVTAFNDWSKEKQFRGLQSRIEQEQKFTVIRGGQVIQIPVADITVGDIAQVKYGDLLPADGILIQGNDLKIDESSLTGESDHVKKSLDKDPLLLSGTHVMEGSGRMVVTAVGVNSQTGIIFTLLGAGGEEEEKKDEKKKEKKNKKQDGAIENRNKAKAQDGAAMEMQPLKSEEGGDGDEKDKKKANLPKKEKSVLQGKLTKLAVQIGKAGLLMSAITVIILVLYFVIDTFWVQKRPWLAECTPIYIQYFVKFFIIGVTVLVVAVPEGLPLAVTISLAYSVKKMMKDNNLVRHLDACETMGNATAICSDKTGTLTMNRMTVVQAYINEKHYKKVPEPEAIPPNILSYLVTGISVNCAYTSKILPPEKEGGLPRHVGNKTECALLGLLLDLKRDYQDVRNEIPEEALYKVYTFNSVRKSMSTVLKNSDGSYRIFSKGASEIILKKCFKILSANGEAKVFRPRDRDDIVKTVIEPMASEGLRTICLAFRDFPAGEPEPEWDNENDIVTGLTCIAVVGIEDPVRPEVPDAIKKCQRAGITVRMVTGDNINTARAIATKCGILHPGEDFLCLEGKDFNRRIRNEKGEIEQERIDKIWPKLRVLARSSPTDKHTLVKGIIDSTVSDQRQVVAVTGDGTNDGPALKKADVGFAMGIAGTDVAKEASDIILTDDNFTSIVKAVMWGRNVYDSISKFLQFQLTVNVVAVIVAFTGACITQDSPLKAVQMLWVNLIMDTLASLALATEPPTESLLLRKPYGRNKPLISRTMMKNILGHAFYQLVVVFTLLFAGEKFFDIDSGRNAPLHAPPSEHYTIVFNTFVLMQLFNEINARKIHGERNVFEGIFNNAIFCTIVLGTFVVQIIIVQFGGKPFSCSELSIEQWLWSIFLGMGTLLWGQLISTIPTSRLKFLKEAGHGTQKEEIPEEELAEDVEEIDHAERELRRGQILWFRGLNRIQTQIRVVNAFRSSLYEGLEKPESRSSIHNFMTHPEFRIEDSEPHIPLIDDTDAEDDAPTKRNSSPPPSPNKNNNAVDSGIHLTIEMNKSATSSSPGSPLHSLETSL
modifications: full-length

Test system: proteins that co-immunoprecipitated with DUX4-CTD constructs expressed in MB135 myoblasts
Test: LC-MS of proteins co-immunoprecipitated with DUX4-CTD (Table 1) and western validation
Assay type: binding, human
Set-up: key to 4. mL1dL2 + Dox + IFNG / 4. + IFNG mix / 4. longCTD + Dox + IFNG / 3. + IFNg + Dox longCTD / 3. + Dox longCTD / 3. + IFNG longCTD: peptide-spectrum matches (PSMs) per protein
Conditions: for 3. + IFNg + Dox longCTD / 3. + Dox longCTD: bait longCTD; for 3. + IFNg + Dox longCTD: experiment 3, IFNg + Dox; for SUM of PSMS: sum over all samples; for 4. longCTD + Dox + IFNG: LC-MS counts of the listed protein co-immunoprecipitated with DUX4-CTD bait longCTD, experiment 4, Dox + IFNG; for 3. + Dox longCTD: experiment 3, Dox only
Outline: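 Two independent experiments compared uninduced, doxycycline and doxycycline+IFNG MB135iDUX4-CTD (plus MB135iDUX4mL1dL2) myoblasts. Anti-FLAG pulldowns (3 h, 4 °C) were eluted in LDS buffer for western validation or with FLAG peptide for trypsin digestion and Orbitrap LC-MS; hits needed ≥2 PSMs in both experiments, ranked by total PSMs.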

Row | Molecule | 3. + IFNg + Dox longCTD | SUM of PSMS | 4. longCTD + Dox + IFNG | 3. + Dox longCTD
1 | B1 | 9 | 30 |  | 
2 | B2 | 68 | 112 | 4 | 24
3 | B3 | 21 | 46 | 9 | 9
4 | B4 |  | 7 | 6 | 1
5 | B5 | 1 | 36 | 13 | 1
